Laboratory results from PMC10480042 (ACS applied materials & interfaces, 2023).

Target: Aβ42
Experiment: SPR

HGVVFLHVTYV [Spike1058 (1058HGVVFLHVTYV1068), fragment of the SARS-CoV-2 spike protein] gave a Kd of 82.6 nM.
